Target: 145-Tailless nucleosome (145 bp Widom 601 DNA with tailless histone mutants H4-del 1-20, H3-del 1-37, H2A-del 1-15 and H2B-del 1-31), P06897
Experiment: native gel or EMSA; FAM-labelled nucleosome (0.8 pmol; oligonucleosomes 0.1 pmol) mixed with different amounts of cGAS in 20 mM Tris-HCl pH 7.6, 60 mM NaCl, 5 mM MgCl2, total volume 10 ul; on ice 30 min; 1.5% agarose gel, 0.2x TBE; Kd from percent bound nucleosome against cGAS concentration
Conditions: remark: other sources report otherwise

B1: human cGAS (cGMP-AMP synthase), Q8N884 1-522 (enzyme)
chain: MQPWHGKAMQRASEAGATAPKASARNARGAPMDPTESPAAPEAALPKAGKFGPARKSGSRQKKSAPDTQERPPVRATGARAKKAPQRAQDTQPSDATSAPGAEGLEPPAAREPALSRAGSCRQRGARCSTKPRPPPGPWDVPSPGLPVSAPILVRRDAAPGASKLRAVLEKLKLSRDDISTAAGMVKGVVDHLLLRLKCDSAFRGVGLLNTGSYYEHVKISAPNEFDVMFKLEVPRIQLEEYSNTRAYYFVKFKRNPKENPLSQFLEGEILSASKMLSKFRKIIKEEINDIKDTDVIMKRKRGGSPAVTLLISEKISVDITLALESKSSWPASTQEGLRIQNWLSAKVRKQLRLKPFYLVPKHAKEGNGFQEETWRLSFSHIEKEILNNHGKSKTCCENKEEKCCRKDCLKLMKYLLEQLKERFKDKKHLDKFSSYHVKTAFFHVCTQNPQDSQWDRKDLGLCFDNCVTYFLQCLRTEKLENYFIPEFNLFSSNLIDKRSKEFLTKQIEYERNNEFPVFDEF
Kd: 79 nM
